The values that follow come from patent US5616558A, “Medicaments comprising glicentin as active ingredient” (Nisshin Flour Milling Co., Ltd., priority 1992, dated 1997).

For data set [1], the system named is male MALB/c mice. Kind of data set: intraperitoneal administration to mice, observation of appearance. The format is in vivo. Particulars: 10 mg/kg intraperitoneally, male MALB/c mice (6 weeks age).
The subject of data set [2] is arginine loaded dogs. Briefly: infusion into the pancreatic artery of arginine loaded dogs; plasma insulin, plasma glucagon and blood glucose measured. The format is in vivo, mongrel dogs. Particulars: 100 pmol or 400 pmol glicentin solution infused into the pancreatic artery for 10 minutes.
Protocol: Healthy mongrel dogs weighing 13 to 17 kg were subjected to the test after an overnight fast (A. Ohneda et al., Hotre. Metab. Res., 9, 447-452 (1977)).
The animals were anesthetized with sodium pentobarbital (Nembutal®) and their abdomens were opened. […] After the operation was completed, saline solution containing 0.5% arginine was infused into the pancreatic artery at a constant rate of 2 ml/min through the cannula using an infusion pump. […] 4 ml portions of blood samples for hormone assay were collected at various intervals into a glass tube containing 1000 KIU aprotinine and 10 mg EDTA.
The plasma insulin was measured in accordance with a known method mentioned in C.
The blood glucose was measured for blood drawn from the femoral artery by the glucose oxidase method using a test kit for the determination of blood glucose (available from Wako Pure Chemical Industries, Japan under the trade name of "Glucose B-Test Wako").

B1: glicentin: peptide comprising 69 amino acid residues, major component of gut glucagon-like immunoreactants; produced by recombinant DNA in E. coli (protein)
chain: RSLQDTEEKSRSFSASQADPLSDPDQMNEDKRHSQGTFTSDYSKYLDSRRAQDFVQWLMNTKRNRNNIA
Take B1: the change in appearance result in data set [1] is given as “no change in appearance”. Further, the “insulin secretion (plasma insulin, IRI)” value in data set [2] (0.5% arginine infusion, anesthetized dogs) is given as “stimulates insulin secretion”. Besides, in data set [2] (antiserum G 21 specific for C-terminal portion of glucagon), the “glucagon level (IRG(G 21))” value is recorded as “not increased”. Further, the blood glucose levels entry in data set [2] (blood from femoral artery, glucose oxidase method) is “no change”.
